According to patent US20190016818A1, “ANTIBODIES AGAINST GLYPICAN-3 AND THEIR USES IN CANCER DIAGNOSIS AND TREATMENT” (LA JOLLA BIOLOGICS, INC., priority 2015, published 2019):
Each block holds one molecule with its values, some of them ahead of it.

Assays:
[1] = system: HepG2 and HuH-7 ectopic xenografts; conditions: cited from earlier work
[2] = system: Hep3B hepatoma cells; assay: Hep3B xenograft animal model with GES1 IgG; type: in vivo, NOD-SCID mice; conditions: 200 mg/Kg sorafenib orally
Protocol: GES1 scFv antibody was humanized to obtain humanized IgG antibody (GES1 humanized scFv antibody) and a xenograft animal model was conducted. Hep3B hepatoma cells were cloned to NOD-SCID mice. After the tumors were generated, 1 mg/Kg and 5 mg/Kg of GES1 IgG were i.v. injected into the mice once a week. Another group of the mice were orally administered with 200 mg/Kg sorafenic.

[3] = target: T1, GPC3 (Homo sapiens, UniProt P51654); assay: Western blot of GPC3 extracellular domain protein and hepatoma cell lysates; type: binding; set-up: purchased; conditions: commercial GPC3 extracellular domain protein under reducing condition; lysates of hepatoma cell lines
Protocol: (§1) Nitrocellulose membranes were blocked with 5% skim milk in TBST for 1 hr. Polyclonal goat anti-chicken IgY light chain antibodies were added at 1:5000 dilution and incubated for an additional hr. The membranes were washed with TBST three times and the bound antibodies were detected by adding horseradish peroxidase (HRP)-conjugated donkey anti-goat Ig antibodies at 1:3000 dilutions. After three washings, the membranes were developed with diaminobenzidine (DAB) substrate until the desired intensity was reached. The IgY antibodies or the E. coli-expressed scFv antibodies were purified and incubated with the purified GPC3 protein or cellular lysates of GPC3-positive HepG2 and Hep3B cells immobilized on nitrocellulose membranes or ELISA plate wells. Their binding was subsequently detected by adding goat anti-mouse IgG or anti-chicken IgY light chain followed by HRP-conjugated donkey anti-goat Ig antibodies as described above.

[4] = target: T1, GPC3; assay: ELISA binding to commercially available GPC3 immobilized on plate wells; set-up: analysis of commercial GPC3_extracellular domain (ECD) and truncated (C185) proteins; purchased; conditions: partially purified scFv
Protocol: as §1
HepG2, Hep3B, cells (2×10^5 cells/ml) was seeded on cover glass and fixed by incubating with equal volume of 8% freshly prepared ice-cold paraformaldehyde on ice for 15 min. After fixing, the cells were dehydrated in a sequential treatment of 70%, 95% and 99% methanol and rehydrated with 95% and 70% methanol. […] Finally, their binding to GPC3 protein was detected by mouse anti-HA antibodies, followed by FITC-conjugated goat anti-mouse antibodies. […]

[5] = target: GPC3 in HepG2 cells (Homo sapiens, UniProt P51654); assay: Immunoprecipitation assay, HepG2 cell lysate; type: binding; set-up: endogenous in cells; host or cells: HepG2; conditions: HepG2 total cell lysate; data very preliminary
Protocol: (§2) Antibody beads were prepared by covalently linking 100 ul of Ni-NTA Sepharose (Amersham Biosciences) and 1 mg of anti-GPC3 scFv antibodies with 20 mM dimethyl pimelimidate. Then, 500 ul of HepG2 and Hep3B cell lysates were be mixed with 25 ul of antibody beads and incubated for 2 hr at 4° C. After extensive washing with PBST, antibody beads will be resuspended in 50 ul of SDS-PAGE loading buffer, boiled for 5 min, and subsequently subjected to western blotting analysis. […] The total cell lysates of Hep3B and HepG2 were incubated with a mixture of his-beads and G5S1, GES1, GES6 or 70SC control scFv antibodies individually. After washing, the his-beads complex was subjected to SDS-PAGE and western blot analysis. […] By contrast, the protein in HepG2 cells was precipitated by GES1, G5S1 and GES6 scFv antibodies. However, the data were very preliminary and need further verification.

[6] = target: T2, GPC3 in Hep3B cells (Homo sapiens, UniProt P51654); assay: Immunoprecipitation assay, Hep3B cell lysate; type: binding; conditions: Hep3B total cell lysate; data very preliminary
T2 construct: endogenous in cells; host or cells: Hep3B
Protocol: as §2

[7] = system: Hep3B cells; assay: Soft agar colony formation assay, Hep3B; type: cell-based, human; conditions: 0.5 μM scFv, 4 weeks
Protocol: (§3) To determine the clonogenicity of HepG2, Hep3B, cells, 5×10^5 cells were pre-incubated in 2 ml DMEM medium containing anti-GPC3 antibodies at concentrations of 0.5-5 uM for 48 hr. Thereafter, cells were harvested, counted and transferred into semi-solid medium supplemented with 0.8% DMEM-methylcellulose and 30% FBS. Finally, 1 ml of the semi-solid medium containing 5×10^3 individual type of cell was plated onto 3.5 cm Petri-dishes. Triplicated Petri-dishes per treatment protocol will be cultivated for 5-7 days under standard conditions. Colony formation (clusters of >30 cells) will be visualized by staining with crystal violet and scored by an inverted microscope. […] The effect of GPC3 scFv on anchorage independent growth of HepG2 and Hep3B cells was explored. Hepatoma cells were treated with 0.5 μM of G5S1, GES1 or α-RTS6 (neg) scFv antibodies for 1 hr and suspended in medium containing 0.4% low melting agarose and plated onto solidified 0.9% agarose in medium at a density of 1×10^5 cells per dish. After incubating for 4 weeks, the number of colonies was counted and recorded. […] The exact reason for the distinct inhibition on 2 cell lines is presently not known.

[8] = system: HepG2 cells; assay: Cell cycle analysis (propidium iodide, FACS); type: cell-based, human
Protocol: Fixed cells were stained with propidium iodide and analyzed by FACS. The cell-cycle distribution of different phases was analyzed with FlowJo v 9.0. FIGS. 12 A, B and C show the results of cell cycle analysis. After treated with G5S1, GES1 or α-RTS6 (neg) scFv antibodies for 48 hrs, the adherent HepG2 cells were detached, washed, and exposed to 70% ethanol on 4° C. overnight. After washing, cells were incubated with […] propidium iodide and […] RNaseA. FACS was carried out and data were statistically analyzed by FlowJo software.

[9] = system: Hep3B xenograft; assay: Tumor xenograft model, Ki-67 immunohistochemistry of tumor tissue; type: in vivo, NOD-SCID mice; conditions: 800 ug/mouse/per time i.v.; compared to untreated groups
Protocol: NOD-SCID mice were used. Briefly, 4-week-old female […] mice were injected subcutaneously with 4×10^6 of HepG2 and Hep3B cancer cells at a single dorsal site. At day 14, tumor-bearing mice were randomized into experimental groups (5 per group) and treated with anti-GPC3 antibodies and positive control with sorafenib accordingly. 400 ug or 800 ug of antibodies were given through intravenous (i.v.) injection every 3 days for 3 weeks. Tumor size was measured every 2 days with calipers until animals are sacrificed. At the time of sacrifice, tumors were dissected and weighted.
Tissue sections from xenograft tumor tissues in mice were de-waxed in xylene and rehydrated through graded alcohols. The antigen retrieval was carried out by heating the rehydrated tissues in 10 mM sodium citrate (pH 6.0) for 20 min. After washing with buffer containing 10 mM Tris-HCl (pH 7.4) and 150 mM sodium chloride, the sections were treated with 3% hydrogen peroxide for 5 min. Anti-Ki-67 antibodies (commercial polyclonal antibody) was be applied for 1 hr at room temperature. Optimal horseradish peroxidase-conjugated secondary antibodies and diaminobenzidine were added sequentially to detect the Ki-67 proliferation marker expression in the examined tissues. The slides were counterstained with GM hematoxylin solution. […]

[10] = system: HepG2 cells; assay: Soft agar colony formation assay, HepG2; type: cell-based, human; conditions: 0.5 μM scFv, 4 weeks
Protocol: as §3

[11] = system: Hep3B cells; assay: Cell migration (wounded monolayer) assay; type: cell-based, human; conditions: Hep3B monolayers wounded, 0.5 uM scFv, 24 hr
Protocol: For cell migration assays, 1×10^3 cells were incubated with anti-GPC3 antibodies at concentrations of 1 to 200 μg/ml for 48 hr before being transferred into a transwell migration system. The cells were plated onto a polycarbonate filter membrane with a pore size of 8 μm (upper layer) and incubated for different time interval at 37° C. in 5% CO2 incubator. Serum free medium containing 0.5 mM EDTA was used for washing off the cells from the lower part of the membrane to lower wells. The cells in the lower wells were collected with centrifugation at 3000 g for 5 min and perform direct cell counting under microscope. The mean growth rate (MGR) of cells after migration through the polycarbonate filter was determined by the equation: MGR=log 2 Nt−log2 N0/t, with N0 as initial cell number, Nt as final cell number and t as time period of cell incubation in days. […] To explore whether the GPC3 protein is essential for cell migration, Hep3B cells were cultured until confluence. The monolayers were wounded, cultured with medium containing 0.5 uM of G5 S1 or GES1 and two controls (NC-70sc or NC-spE) scFv antibodies and analyzed after 24, hr. […] The effect of G5S1 scFv was minimal and reached to the basal level obtained in medium without any scFv antibody.

[12] = system: GPC3-positive Hep3B, HepG2 and HepJ5 cells; assay: Flow cytometry binding analysis; type: cell-based, human; conditions: 100 μg/ml
Protocol: A total of 2×10^6 HepG2, Hep3B, cells were harvested and fixed with 2% paraformaldehyde as described previously with minor modification (Leu et al., 2010). The GPC3 molecule expressed in these […] cells were detected by adding purified chicken scFv antibodies, followed by mouse anti-HA (1:200) and FITC-conjugated goat anti-mouse antibodies (1:200). The results were analyzed using the FACScan flow cytometer Negative controls were performed by omitting the primary scFv antibodies, while positive controls were performed using commercial polyclonal anti-human GPC3 antibodies (1:200) instead of home-made chicken anti-GPC3 scFv antibodies. […] The partially purified scFv antibodies were examined for their binding activity to GPC3-positive Hep3B, HepG2 and HepJ5 cells.

[13] = system: GPC3-positive HepG2 cells and Hep 3B cells; assay: Immunofluorescence staining binding analysis; type: cell-based, human; conditions: Hep 3B cells (FIG. 9A) and Hep G2 cells (FIG. 9B)
Protocol: HepG2, Hep3B, cells (2×10^5 cells/ml) were seeded on cover glass and fixed by incubating with equal volume of 8% freshly prepared ice-cold paraformaldehyde on ice for 15 min. After fixing, the cells were dehydrated in a sequential treatment of 70%, 95% and 99% methanol and rehydrated with 95% and 70% methanol. The slides were then overlaid with blocking buffer (1% BSA in 1×PBS) at room temperature (RT) for 1 hr. Following washing with 1×PBS, specific monoclonal mouse or scFv antibodies were incubated with cells at RT for one additional hr. Finally, their binding to GPC3 protein was detected by mouse anti-HA antibodies, followed by FITC-conjugated goat anti-mouse antibodies. Nuclei were counterstained with PI solution in parallel. The slides were examined using a Confocal Spectral Microscope Imaging System (TCS SP5, Leica). […] The partially purified scFv antibodies were examined for their binding activity to GPC3-positive HepG2 cells and Hep 3B cells.

[14] = system: HepG2 cells; assay: Proliferation (MTT) assay; type: cell-based, human
Protocol: A volume of 100 μl DMEM medium containing 5×10^3 HepG2, Hep3B, wherein cells were seeded onto 96-well plates. […] Thereafter, 10 μl of 3-[4,5-dimethylthiazol-2-yl]-2,5-diphenyltetrazolium bromide (MTT; 10 mg/ml) were added to determine the number of surviving cells. The supernatant was removed after 3 hr of incubation, and formazan crystals that had been developed were dissolved by adding of 100 μl acidified 2-propanol/well (0.04 N HCl). Extinction was measured by an automated microtiter plate reader at 540 nm. Unrelated anti-snake venom antibodies (neg) were included in control experiments. […] HepG2 cells were cultured in the medium containing G5S1, GES1, GES6 or control scFv antibodies at final concentrations of 0.1 μM for 1-6 days.

Molecule: hGC33: Humanized GC33
- efficacy against the HepG2 xenograft relative to GC33 [1]: as effective as GC33

Molecule: CNC(=O)c1cc(Oc2ccc(NC(=O)Nc3ccc(Cl)c(C(F)(F)F)c3)cc2)ccn1 [sorafenib]
- tumor growth inhibition [2]: 48.8%

- binding activity to GPC3 on ELISA [4]: reacted significantly with GPC3
- precipitation of protein with predicted molecular weight of GPC3 [5]: precipitated
- precipitation of protein with predicted molecular weight of GPC3 [6]: precipitated
B1: GES1: chicken anti-GPC3 scFv antibody; heavy chain SEQ ID NO: 30, light chain SEQ ID NO: 38 (antibody, V domains shown)
VH: EVQLLESGGGLVQPGGSLRLSCAASGFTFSSFNMFWVRQAPGKGLEWVSWISSTGSRTKYADSVKGRFTISRDNSKNTLYLQMNSLRAEDTATYYCAKSASRGAGRIDAWGRGTLVTVSS
VL: ALTQPPSASGSPGQSITISCTGTGGSYGWYQQHAGKAPKLVIYNNNKRPSGVPDRFSGSKSGNTASLTVSGLQTDDEAVYYCGSRDSSYFGIFGGGTKLTVL
modifications: scFv linker
- fragment of GPC3 identified on western blot [3]: can identify C-terminus fragment of GPC3 and GPC3 in cellular lysates
- inhibitory effect on colony formation [7]: not as obvious
- cell cycle arrest ([8]; 0.5 μM, 48 hrs): arrested in G1 phase
- cell population in subG1 stage ([8]; treated 48 hrs): 28.8%
- Ki-67 expression in tumor sections [9]: reduced level of Ki-67 expression
- inhibitory effect on colony formation [10]: significant inhibitory effort on colony formation
- effect on cell migration [11]: partial inhibitory effect
- binding signal to hepatoma cells (flow cytometry) [12]: various but significant binding signal
- binding signal to cell surface (immunofluorescence) [13]: various but significant binding signal
- inhibition of cell proliferation, concentration dependence ([14]; 0, 0.5, 1, 2, 4 and 8 μM for 3 days): inhibited the cell proliferation in a dosage-dependent manner
- suppression on cell proliferation ([14]; HepG2 cells, 0.1 μM, day 6): approximately 60%
